Each block holds one binder with its values, some of them ahead of it.
Columns and labels:
wild-type CNTFR-HIS [1] = molecular target: T1, wild-type CNTFR-HIS (human, UniProt P26992 23-342); assay: flow cytometry, yeast-displayed CLCF1 construct, soluble CNTFR-HIS titrated, apparent Kd from a four-parameter fit
T1 construct: also called wtCNTFR-HIS; HIS tagged CNTFR; not shown: HIS tag
T1 sequence: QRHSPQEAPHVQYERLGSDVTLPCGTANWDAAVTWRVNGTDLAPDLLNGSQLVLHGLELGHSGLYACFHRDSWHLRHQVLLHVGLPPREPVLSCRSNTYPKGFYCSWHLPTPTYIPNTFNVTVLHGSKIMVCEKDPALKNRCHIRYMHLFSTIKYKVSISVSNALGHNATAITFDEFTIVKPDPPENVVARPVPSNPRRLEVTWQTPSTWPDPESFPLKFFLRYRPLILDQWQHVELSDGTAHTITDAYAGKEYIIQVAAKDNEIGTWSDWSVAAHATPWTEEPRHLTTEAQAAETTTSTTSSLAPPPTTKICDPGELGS
Protocol: (§1) Using equilibrium binding conditions and screened by flow cytometric sorting (FACS), high throughput screening of the CLCF1 library using wtCNTFR-HIS was performed to enrich variants showing increased CLCF1 binding. Expression signal was used to normalize CNTFR binding to distinguish high expressers from high affinity binders. Screening stringency was increased throughout sorting by decreasing the concentration of wtCNTFR-HIS incubated with the library. […] Thus a variant containing the three mutations (named FRR-CLCF1) was chosen for further characterization (FIG. 7).
(§2) Yeast displaying CLCF1 constructs were incubated with varying concentrations of CNTFR for 12 h at room temperature to reach equilibrium binding. This was followed by washing with BPBS and resuspension in PBSA with 1:500 ratio of chicken anti-c-Myc (Invitrogen) for 30 min at 4 C. Yeast were then washed and pelleted, and secondary labeling was performed on ice for 30 min using PBSA with 1:100 dilution of goat anti-chicken PE (Santa Cruz) and mouse anti-HIS Hilyte Fluor 488 (Anaspec). Then samples were washed and analyzed by flow cytometry using Accuri (BD Biosciences). Samples were analyzed on BD Bioscience software, and data were analyzed using FlowJo software. Kd values were determined by fitting to a four-parameter sigmoidal curve. Error bars represent the standard deviation of triplicate experiments.

wild-type CNTFR-HIS [2] = molecular target: T1, wild-type CNTFR-HIS; assay: flow cytometry, yeast-displayed CLCF1 construct, soluble CNTFR-HIS titrated, anti-HIS Hilyte Fluor 488 detection
Protocol: as §1, §2

wild-type CNTFR-Fc [3] = molecular target: T2, wild-type CNTFR-Fc (human, UniProt P26992 23-342); assay: assay not given; the FRR-CLCF1 and sfCLCF1 values in it equal those of FIG. 17 B (cell-free ELISA with 2 nM CNTFR-Fc)
T2 construct: also called wtCNTFR-Fc; not shown: Fc domain; captured with anti-mouse Fc antibody
T2 sequence: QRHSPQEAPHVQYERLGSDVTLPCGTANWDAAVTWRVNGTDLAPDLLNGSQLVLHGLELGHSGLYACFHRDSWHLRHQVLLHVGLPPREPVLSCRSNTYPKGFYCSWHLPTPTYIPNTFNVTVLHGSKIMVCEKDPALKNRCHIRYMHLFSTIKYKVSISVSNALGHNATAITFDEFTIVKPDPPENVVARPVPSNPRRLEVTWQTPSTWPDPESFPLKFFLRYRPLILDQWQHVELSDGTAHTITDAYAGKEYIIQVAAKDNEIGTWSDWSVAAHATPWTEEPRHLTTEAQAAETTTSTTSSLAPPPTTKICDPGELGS

wild-type CNTFR-Fc [4] = molecular target: T2, wild-type CNTFR-Fc; assay: cell-free ELISA: HIS-tagged CLCF1 constructs with 2 nM CNTFR-Fc, captured by anti-HIS, detected by anti-mouse HRP; FRR-CLCF1 plus W169L
Protocol: (§3) 96-well plates were coated with 10 μg/mL of anti-HIS antibody overnight and blocked with 5% milk for 1 h. The plates were then washed twice with BPBS. Different concentrations of soluble constructs of HIS-tagged CLCF1 variants were incubated with 2 nM CNTFR-Fc in BPBS for 12 h at room temperature. The mixture was then added to 96-well plates coated with anti-HIS antibody for 1 h followed by washing with BPBS twice. Subsequently, the wells were incubated with 1:1000 diluted HRP conjugated anti-mouse antibody for 1 h at room temperature then washed four times with PBS. 1-Step Ultra TMB ELISA (Thermo Fisher Scientific) was used for the readout detected using a plate reader (Tecan).

wild-type CNTFR-Fc [5] = molecular target: T2, wild-type CNTFR-Fc; assay: cell-free ELISA: HIS-tagged CLCF1 constructs with 2 nM CNTFR-Fc, captured by anti-HIS, detected by anti-mouse HRP; FRR-CLCF1 plus Y22C
Protocol: as §3

wild-type CNTFR-Fc [6] = molecular target: T2, wild-type CNTFR-Fc; assay: cell-free ELISA, HIS-tagged soluble CLCF1 titrated against 2 nM CNTFR-Fc, anti-HIS capture, HRP anti-mouse detection
Protocol: as §3

wild-type CNTFR-Fc [7] = molecular target: T2, wild-type CNTFR-Fc; assay: cell-free ELISA, HIS-tagged soluble CLCF1 titrated against 2 nM CNTFR-Fc
Protocol: as §3

wild-type CNTFR-Fc [8] = molecular target: T2, wild-type CNTFR-Fc; assay: cell-free ELISA: HIS-tagged CLCF1 constructs with 2 nM CNTFR-Fc, captured by anti-HIS, detected by anti-mouse HRP; FRR-CLCF1 plus K180R
Excerpt: (§4) This was subsequently confirmed using a cell-free ELISA method. […] Unexpectedly, Y22C, W169L, and K180R decreased binding for gp130 with the combined mutations leading to the lowest binding while the mutations led to increased LIFR binding through increased CNTFR binding (FIG. 18). Because reduced binding interaction with beta receptors is desirable for antagonizing activation of CNTFR-CLCF1 mediated pathways, the clone with all six mutations, which was named sfCLCF1 (shuffled CLCF1) was selected for further studies.
as §3

wild-type CNTFR-Fc [9] = molecular target: T2, wild-type CNTFR-Fc; assay: cell-free ELISA: HIS-tagged CLCF1 constructs with 2 nM CNTFR-Fc, captured by anti-HIS, detected by anti-mouse HRP; all six mutations combined (sfCLCF1)
Excerpt: as §4, §3

wild-type CNTFR-Fc [10] = molecular target: T2, wild-type CNTFR-Fc; assay: sandwich ELISA, soluble CLCF1 titrated against 2 nM CNTFR-Fc, anti-mouse-Fc capture, anti-CLCF1 detection
Protocol: (§5) The CLCF1 variants isolated from screening were cloned into the pET28b bacterial expression plasmid and expressed and purified. […] A sandwich ELISA was performed using an anti-mouse Fc antibody as a capturing agent for wtCNTFR-Fc, followed by an anti-CLCF1 antibody as a detection agent for the bound complex. […] ELISA was also used to measure binding interactions with the gp130 and LIFR beta receptors.
(§6) To measure the solution-phase binding interaction between the CLCF1 constructs and CNTFR, different concentrations of soluble, recombinant CLCF1 variants and wtCLCF1 were incubated with 2 nM CNTFR-Fc in BPBS for 12 h at room temperature. The mixture was then added to 96-well plates coated with anti-mouse-Fc antibody for 1 h followed by washing with BPBS twice. Subsequently, the wells were incubated with 1:1000 diluted anti-CLCF1 rabbit antibody for 2 h at room temperature then washed four times with BPBS. The wells were incubated with a 1:1000 diluted HRP conjugated anti-rabbit antibody for 2 h at room temperature, and washed four times with BPBS. 1-Step Ultra TMB ELISA was used for the readout, which was measured using a plate reader (Tecan).

wild-type CNTFR-Fc [11] = molecular target: T2, wild-type CNTFR-Fc; assay: sandwich ELISA, soluble CLCF1 titrated against 2 nM CNTFR-Fc, apparent Kd
Protocol: as §5, §6

wild-type CNTFR-Fc [12] = molecular target: T2, wild-type CNTFR-Fc; assay: sandwich ELISA: soluble CLCF1 incubated with CNTFR-Fc, captured by anti-mouse Fc, detected by anti-CLCF1; sandwich ELISA, anti-mouse Fc capture, anti-CLCF1 detection
Protocol: as §5, §6

wild-type CNTFR-Fc [13] = molecular target: T2, wild-type CNTFR-Fc; assay: cell-free ELISA: HIS-tagged CLCF1 constructs with 2 nM CNTFR-Fc, captured by anti-HIS, detected by anti-mouse HRP; FRR-CLCF1 parent, no added mutation
Protocol: as §3

Kd (wild-type CNTFR-HIS [1]): 4.2 nM
EC50 (read off the curve) (wild-type CNTFR-HIS [2]): ~3 nM
B1: v3 (ligand)
CLCF1 variant displayed on yeast as Aga2p fusion with c-myc tag: LNRTGDPGPGPSIQKTYDLTRYLEHQLRSLAGTYLNYLGPPFNEPDFNPPRLGAETLPRATVDLEVWRSLNDKLRLTQNYEAYSHLLCYLRGLNRRAATAELRRSLAHFCTSLQGLLGSIAGVMAALGYPLPQPLPGTEPTWTPGPARSDFLQKMDDFWLLKELQTWLWRSAKDFNRLKKKMQPPAAAVTLHLGAHGF

Kd (wild-type CNTFR-Fc [3]): 0.93 nM
B2: FRRAA-CLCF1 (ligand)
chain: LNRTGDPGPGPSIQKTYDLTRYLEHQLRSLAGTYLNYLGPPFNEPDFNPPRLGAETLPRATVDLEVWRSLNDKLRLTQNYEAYSHFLCYLRGLNRRAATAELRRSLAHFCTSLQGLLGSIAGVMAALGYPLPQPLPGTEPTWTPGPARSDALQAMDDFWLLKELQTWLWRSAKDFNRLKKKMQPPAAAVTLHLGAHGF
notes: It is read as FRR-CLCF1 plus the LIFR-reducing alanine substitutions F151A and K154A

Kd (wild-type CNTFR-Fc [4]): 0.64 nM
B3: recombinant soluble FRR-CLCF1 with W169L (ligand)
chain: LNRTGDPGPGPSIQKTYDLTRYLEHQLRSLAGTYLNYLGPPFNEPDFNPPRLGAETLPRATVDLEVWRSLNDKLRLTQNYEAYSHFLCYLRGLNRRAATAELRRSLAHFCTSLQGLLGSIAGVMAALGYPLPQPLPGTEPTWTPGPARSDFLQKMDDFWLLKELQTWLLRSAKDFNRLKKKMQPPAAAVTLHLGAHGF
notes: Read as FRR-CLCF1 plus W169L; HIS-tagged in the cell-free assay

Kd (wild-type CNTFR-Fc [9]): 0.115 nM
EC50 (read off the curve) (wild-type CNTFR-Fc [6]): ~0.2 nM
B7: recombinant soluble sfCLCF1 (shuffled CLCF1; Y22C, L86F, Q96R, H148R, W169L, K180R) (ligand)
chain: LNRTGDPGPGPSIQKTYDLTRCLEHQLRSLAGTYLNYLGPPFNEPDFNPPRLGAETLPRATVDLEVWRSLNDKLRLTQNYEAYSHFLCYLRGLNRRAATAELRRSLAHFCTSLQGLLGSIAGVMAALGYPLPQPLPGTEPTWTPGPARSDFLQKMDDFWLLKELQTWLLRSAKDFNRLKRKMQPPAAAVTLHLGAHGF
notes: HIS-tagged in the cell-free assay; also called the clone with all 6 mutations; a variant with all of the mutations combined

EC50 (read off the curve) (wild-type CNTFR-Fc [6]): ~1 nM
EC50 (read off the curve) (wild-type CNTFR-Fc [10]): ~1 nM
Kd (wild-type CNTFR-Fc [11]): 0.86 nM
Kd (wild-type CNTFR-Fc [12]): ~0.83 nM
Kd (wild-type CNTFR-Fc [13]): 0.869 nM
B9: recombinant soluble FRR-CLCF1 (L86F, Q96R, H148R) (ligand)
chain: LNRTGDPGPGPSIQKTYDLTRYLEHQLRSLAGTYLNYLGPPFNEPDFNPPRLGAETLPRATVDLEVWRSLNDKLRLTQNYEAYSHFLCYLRGLNRRAATAELRRSLAHFCTSLQGLLGSIAGVMAALGYPLPQPLPGTEPTWTPGPARSDFLQKMDDFWLLKELQTWLWRSAKDFNRLKKKMQPPAAAVTLHLGAHGF
notes: Expressed in E. coli from pET28b

The next lines start with the binder.

B4: recombinant soluble FRR-CLCF1 with Y22C (ligand)
chain: LNRTGDPGPGPSIQKTYDLTRCLEHQLRSLAGTYLNYLGPPFNEPDFNPPRLGAETLPRATVDLEVWRSLNDKLRLTQNYEAYSHFLCYLRGLNRRAATAELRRSLAHFCTSLQGLLGSIAGVMAALGYPLPQPLPGTEPTWTPGPARSDFLQKMDDFWLLKELQTWLWRSAKDFNRLKKKMQPPAAAVTLHLGAHGF
notes: HIS-tagged in the cell-free assay
Kd (wild-type CNTFR-Fc [5]): 0.464 nM

B5: v4 (ligand)
soluble CLCF1 variant: LNRTGDPGPGPSIQKTYDLTRYLEHQLRSLAGTYLNYLGPPFNEPDFNPPRLGAETLPRATVDLEVWRSLNDKLRLTQNYEAYSHFLCYLRGLNRRAATAELRRSLAHFCTSLQGLLGSIAGVMAALGYPLPQPLPGTEPTWTPGPARSDFLQKMDDFWLLKELQTWLLRSAKDFNRLKRKMQPPAAAVTLHLGAHGF
notes: the text prints no Kd for it
EC50 (read off the curve) (wild-type CNTFR-Fc [6]): ~0.2 nM
Kd (wild-type CNTFR-Fc [7]): 0.2 nM

B6: recombinant soluble FRR-CLCF1 with K180R (ligand)
chain: LNRTGDPGPGPSIQKTYDLTRYLEHQLRSLAGTYLNYLGPPFNEPDFNPPRLGAETLPRATVDLEVWRSLNDKLRLTQNYEAYSHFLCYLRGLNRRAATAELRRSLAHFCTSLQGLLGSIAGVMAALGYPLPQPLPGTEPTWTPGPARSDFLQKMDDFWLLKELQTWLWRSAKDFNRLKRKMQPPAAAVTLHLGAHGF
notes: Read as FRR-CLCF1 plus K180R; HIS-tagged in the cell-free assay
Kd (wild-type CNTFR-Fc [8]): 0.559 nM

B8: enCLCF1 (engineered CLCF1; Y22C, L86F, Q96R, H148R, F151A, K154A, W169L, K180R) (ligand)
chain: LNRTGDPGPGPSIQKTYDLTRCLEHQLRSLAGTYLNYLGPPFNEPDFNPPRLGAETLPRATVDLEVWRSLNDKLRLTQNYEAYSHFLCYLRGLNRRAATAELRRSLAHFCTSLQGLLGSIAGVMAALGYPLPQPLPGTEPTWTPGPARSDALQAMDDFWLLKELQTWLLRSAKDFNRLKRKMQPPAAAVTLHLGAHGF
notes: That change is not in the list of mutations; also called sfAA-CLCF1
Kd (wild-type CNTFR-Fc [3]): 0.12 nM
